# In publication PMC9734383 (2022):
# Several values for one entry are separate records, joined by “and”; a condition that tells them apart may be missing. Equal values may be shown once.
# Assays:
# Assay in all cases: BLI
# [1] = target: H1-HA (A/swine/Guangdong/104/2013) (influenza A virus …)
# [2] = target: H6 HA (recombinant HA of the panel) (influenza A virus (strain  in …))
# [3] = target: H15 HA (recombinant HA of the panel) (influenza A virus (strain  in …))
# [4] = target: H14 HA (recombinant HA of the panel) (influenza A virus (strain  in …))
# [5] = target: H3 HA (recombinant HA of the panel) (influenza A virus (strain  in …))
# [6] = target: H17 HA (recombinant HA of the panel) (influenza A virus, bat H17N10 (strain …))
# [7] = target: H9 HA (recombinant HA of the panel) (influenza A virus (strain  in …))
# [8] = target: H8 HA (recombinant HA of the panel) (influenza A virus (strain  in …))
# [9] = target: H18 HA (recombinant HA of the panel) (influenza A virus, bat H18N11 (strain …))
# [10] = target: H4 HA (recombinant HA of the panel) (influenza A virus (strain  in …))
# [11] = target: H10 HA (recombinant HA of the panel) (influenza A virus (strain  in …))
# [12] = target: H11 HA (recombinant HA of the panel) (influenza A virus (strain  in …))
# [13] = target: H1 HA (recombinant HA of the panel) (influenza A virus (strain  in …))
# [14] = target: H5 HA (recombinant HA of the panel) (influenza A virus (strain  in …))
# [15] = target: H12 HA (recombinant HA of the panel) (influenza A virus (strain  in …))
binder,measurement,setting,value
"PN-SIA28 Fab (Fab, V domains shown) VH: QVQLVESGGGVVQPGRSLRLSCAASGFPFSSYGMHWVRQAPGKGLEWVAGVSYDGSYKYYADSVKGRFTISRDSSKSTLYLQMNSLRPEDTAVYYCARPSAIFGIYIILNGLDVWGQGTTVTVSS VL: EIVLTQSPSSVSASVGDRVTITCRATQGISSWLAWYQQKPGKPPKLLIFGASSLQSGVPSRFSGSGSGTDFTLTISSLQPEDFATYFCQQAHSFPLTFGGGTKVEIK",Kd,[1],0.26 nM
same,Kd,[2],66.8 nM
same,Kd,[3],2380 nM
same,Kd,[4],171 nM
same,Kd,[5],144 nM
same,Kd,[6],208 nM
same,Kd,[7],34.3 nM
same,Kd,[8],36 nM
same,Kd,[9],40.2 nM
same,Kd,[10],201 nM
same,Kd,[11],1160 nM
same,Kd,[12],682 nM
same,Kd,[13],0.174 nM
same,Kd,[14],6.3 nM and 6.79 nM
same,Kd,[15],14900 nM
